This note sets out measurements from US20260250421A1 (BIOCYTOGEN PHARMACEUTICALS BEIJING, published 2026).

By Kd is commonly meant the equilibrium constant for the complex coming apart. The koff is the rate constant with which the complex falls apart. A word on the kon: it is a measure of how fast the partners come together.

The labels stand for the following.
T1: His-tagged monkey TROP2 protein (cynomolgus monkey; Rhesus …, UniProt A0A5F8AGB8 27-274)
T1 construct: also called cTROP2-His; ACRO Biosystems Cat# TR2-R52H3
T1 sequence: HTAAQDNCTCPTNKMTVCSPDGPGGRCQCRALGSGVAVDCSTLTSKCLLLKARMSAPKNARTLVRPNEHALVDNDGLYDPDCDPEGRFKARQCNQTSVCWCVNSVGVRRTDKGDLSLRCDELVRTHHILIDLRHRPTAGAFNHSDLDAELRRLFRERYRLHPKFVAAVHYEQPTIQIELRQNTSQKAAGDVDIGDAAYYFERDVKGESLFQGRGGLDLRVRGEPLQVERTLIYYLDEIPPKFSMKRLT

T2: His-tagged human PTK7 protein (human, UniProt Q13308 31-704)
T2 construct: Bought protein; also called hPTK7-His; not shown: His tag
T2 sequence: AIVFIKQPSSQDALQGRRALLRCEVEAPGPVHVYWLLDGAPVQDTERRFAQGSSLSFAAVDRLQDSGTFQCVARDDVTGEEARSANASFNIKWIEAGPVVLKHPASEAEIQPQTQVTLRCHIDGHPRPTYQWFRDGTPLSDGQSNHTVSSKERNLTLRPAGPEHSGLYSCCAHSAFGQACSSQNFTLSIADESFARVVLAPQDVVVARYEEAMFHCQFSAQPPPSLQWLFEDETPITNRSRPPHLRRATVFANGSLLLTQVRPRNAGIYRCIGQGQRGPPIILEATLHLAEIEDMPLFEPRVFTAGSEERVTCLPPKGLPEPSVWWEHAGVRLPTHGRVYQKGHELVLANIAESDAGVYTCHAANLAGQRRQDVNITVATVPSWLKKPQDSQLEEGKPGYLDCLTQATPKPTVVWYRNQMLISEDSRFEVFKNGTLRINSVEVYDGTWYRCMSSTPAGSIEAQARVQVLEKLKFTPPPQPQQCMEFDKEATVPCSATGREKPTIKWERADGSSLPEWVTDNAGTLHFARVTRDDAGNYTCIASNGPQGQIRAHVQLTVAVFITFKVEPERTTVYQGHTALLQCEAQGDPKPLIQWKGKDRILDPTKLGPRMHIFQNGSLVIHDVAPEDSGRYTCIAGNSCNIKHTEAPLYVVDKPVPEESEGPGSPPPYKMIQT

T3: His-tagged cynomolgus monkey PTK7 protein (cynomolgus monkey, UniProt A0A2K5VNI5 39-712)
T3 construct: Bought protein; also called cPTK7-His; ACRO Biosystems Cat# PT7-C52H3; not shown: His tag
T3 sequence: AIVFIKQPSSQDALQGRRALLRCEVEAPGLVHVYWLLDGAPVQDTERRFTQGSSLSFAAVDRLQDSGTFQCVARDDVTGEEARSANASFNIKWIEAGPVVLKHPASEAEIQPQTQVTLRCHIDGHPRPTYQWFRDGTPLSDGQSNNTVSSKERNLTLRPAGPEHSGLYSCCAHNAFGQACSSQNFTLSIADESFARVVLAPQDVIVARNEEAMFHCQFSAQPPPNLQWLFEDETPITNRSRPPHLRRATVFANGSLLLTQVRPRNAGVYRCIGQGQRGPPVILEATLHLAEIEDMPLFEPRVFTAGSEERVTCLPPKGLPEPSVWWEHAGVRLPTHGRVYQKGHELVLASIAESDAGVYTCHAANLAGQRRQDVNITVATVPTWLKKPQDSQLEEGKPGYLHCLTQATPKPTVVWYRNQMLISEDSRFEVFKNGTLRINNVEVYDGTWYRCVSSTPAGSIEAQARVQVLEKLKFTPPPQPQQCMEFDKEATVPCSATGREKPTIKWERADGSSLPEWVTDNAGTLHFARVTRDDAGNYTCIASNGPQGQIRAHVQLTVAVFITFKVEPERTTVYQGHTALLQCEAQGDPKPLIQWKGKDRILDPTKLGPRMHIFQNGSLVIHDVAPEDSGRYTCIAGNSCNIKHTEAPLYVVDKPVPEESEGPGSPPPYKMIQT

T4: His-tagged dog PTK7 protein (dog, UniProt Q13308 31-703 (human entry))
T4 construct: also called dPTK7-His
T4 chain: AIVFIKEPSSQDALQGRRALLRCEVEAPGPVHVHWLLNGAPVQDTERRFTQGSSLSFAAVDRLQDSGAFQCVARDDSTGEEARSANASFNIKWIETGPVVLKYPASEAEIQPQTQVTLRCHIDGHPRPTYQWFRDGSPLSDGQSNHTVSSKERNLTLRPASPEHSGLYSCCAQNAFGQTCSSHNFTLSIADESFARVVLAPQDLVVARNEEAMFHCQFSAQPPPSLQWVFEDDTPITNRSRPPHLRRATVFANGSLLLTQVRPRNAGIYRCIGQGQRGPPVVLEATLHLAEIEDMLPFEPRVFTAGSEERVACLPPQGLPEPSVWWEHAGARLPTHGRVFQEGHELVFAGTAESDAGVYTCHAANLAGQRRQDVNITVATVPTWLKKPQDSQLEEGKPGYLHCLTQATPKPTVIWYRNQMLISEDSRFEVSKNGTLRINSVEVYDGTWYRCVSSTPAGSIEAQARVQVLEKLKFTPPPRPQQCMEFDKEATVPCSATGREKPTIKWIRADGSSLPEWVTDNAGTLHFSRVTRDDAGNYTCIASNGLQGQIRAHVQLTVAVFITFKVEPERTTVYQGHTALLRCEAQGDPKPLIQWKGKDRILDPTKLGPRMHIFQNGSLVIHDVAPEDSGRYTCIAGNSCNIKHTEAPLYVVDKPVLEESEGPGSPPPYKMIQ

T5: His-tagged human TROP2 protein (human, UniProt P09758 27-274)
T5 construct: Bought protein; also called hTROP2-His; ACRO Biosystems Cat# TR2-H5223; not shown: His tag
T5 sequence (looked up): T1 sequence with V36M, N67S, V204I

B1: 3E6-18E9 (bispecific antibody, V domains shown)
VH 1: QVQLVESGAEVKKPGESLRISCRGSGYSFTSYWISWVRQMPGKGLEWMGRIDPSDSYTKYSPSFQGHVTISADKSISTAYLQWSSLKASDTAMYYCARRDGDYFDFDYWGQGTLVTVSS
VH 2: QLQLQQSGPGLLKPSETLSLTCTVSGGSISSSYYFWGWIRQPPGKGLEWIGAIYYIGNTHYNPSLKSRVTISIDTSKNQFSLNLNSVTAADTAIYYCARYEDTWNWFDPWGQGTLVTVSS
VL: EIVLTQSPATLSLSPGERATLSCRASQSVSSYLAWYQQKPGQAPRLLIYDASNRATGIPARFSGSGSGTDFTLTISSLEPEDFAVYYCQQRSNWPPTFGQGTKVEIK
notes: also called anti-PTK7/TROP2 bispecific antibody 3E6-18E9
B2: 3E6-6F7 (bispecific antibody, V domains shown)
VH 1: B1 VH 1
VH 2: EVQLVQSGPGLVKPSETLSLTCTVSGGSIDSGYYYWGWIRQPPGKGLEWIGSIYYIGTTYYIPSLKSRVTISVDTSKNRFSLKLTSVTAADTAVYYCARQPITVAGHDAFDIWGQGTMVTVSS
VL: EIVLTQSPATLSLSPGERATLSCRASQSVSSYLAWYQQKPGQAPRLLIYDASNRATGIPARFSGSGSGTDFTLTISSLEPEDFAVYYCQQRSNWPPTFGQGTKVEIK
notes: also called anti-PTK7/TROP2 bispecific antibody 3E6-6F7
B3: 3C4-18F12 (bispecific antibody, V domains shown)
VH 1: B1 VH 1 with V5E, E6Q, G8R, R23K, K59N, S61N, D102S
VH 2: QLQLKESGPGLVKPSETLSLTCTVSGGSISYYYWSWIRQPPGMGLEWIGNIYYSGDTNYNPSLRSRVTISIDMSKNQFSLRLNSVTAADTAVYYCARYDMFKWNYEAFDVWGQGTMVTVSS
VL: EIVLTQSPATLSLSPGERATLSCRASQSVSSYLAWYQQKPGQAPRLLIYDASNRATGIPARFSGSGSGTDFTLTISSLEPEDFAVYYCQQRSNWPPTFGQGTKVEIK
notes: also called anti-PTK7/TROP2 bispecific antibody 3C4-18F12
B4: 3E6-18F12 (bispecific antibody, V domains shown)
VH 1: B1 VH 1
VH 2: B3 VH 2
VL: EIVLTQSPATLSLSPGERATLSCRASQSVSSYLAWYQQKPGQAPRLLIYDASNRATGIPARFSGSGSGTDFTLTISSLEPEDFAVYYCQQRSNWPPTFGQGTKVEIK
notes: also called anti-PTK7/TROP2 bispecific antibody 3E6-18F12
B5: 3C4-6F7 (bispecific antibody, human IgG1, kappa)
heavy 1: not shown
heavy 2: EVQLVQSGPGLVKPSETLSLTCTVSGGSIDSGYYYWGWIRQPPGKGLEWIGSIYYIGTTYYIPSLKSRVTISVDTSKNRFSLKLTSVTAADTAVYYCARQPITVAGHDAFDIWGQGTMVTVSSASTKGPSVFPLAPSSKSTSGGTAALGCLVKDYFPEPVTVSWNSGALTSGVHTFPAVLQSSGLYSLSSVVTVPSSSLGTQTYICNVNHKPSNTKVDKKVEPKSCDKTHTCPPCPAPELLGGPSVFLFPPKPKDTLMISRTPEVTCVVVDVSHEDPEVKFNWYVDGVEVHNAKTKPREEQYNSTYRVVSVLTVLHQDWLNGKEYKCKVSNKALPAPIEKTISKAKGQPREPQVCTLPPSREEMTKNQVSLSCAVKGFYPSDIAVEWESNGQPENNYKTTPPVLDSDGSFFLVSKLTVDKSRWQQGNVFSCSVMHEALHNHYTQKSLSLSPGK
light: not shown
notes: Knobs-into-holes IgG1 with common light chain; also called anti-PTK7/TROP2 bispecific antibody 3C4-6F7

Substitutions are numbered along the chain they refer to.

The first test has as its target T1, His-tagged monkey TROP2 protein. Briefly: SPR Biacore 8K, Ab on Protein A chip. In general terms: Surface plasmon resonance follows binding to a sensor surface in real time, without labels.
B1 had a dissociation constant (Kd) of 3.66 nM, a koff of 0.00119 s⁻¹ and a kon of 325000 M⁻¹ s⁻¹.
For B2, in that order: 8.07 nM, 0.00284 s⁻¹ and 352000 M⁻¹ s⁻¹.
For B3, in that order: 12.1 nM, 0.00252 s⁻¹ and 209000 M⁻¹ s⁻¹.
B4 came in with a Kd of 13.9 nM, a koff of 0.00231 s⁻¹ and a kon of 166000 M⁻¹ s⁻¹.
For B5, in that order: 5.94 nM, 0.00179 s⁻¹ and 301000 M⁻¹ s⁻¹.

The target in another test is T2, His-tagged human PTK7 protein. Briefly: SPR Biacore 8K, Ab on Protein A chip. The protocol:
(§1) The affinity of the anti-PTK7/TROP2 bispecific antibodies to His-tagged human TROP2 protein (hTROP2-His, ACRO Biosystems Inc., Cat #: TR2-H5223), His-tagged […] monkey TROP2 protein (cTROP2-His, ACRO Biosystems Inc., Cat #: Cat: TR2-R52H3), His-tagged dog TROP2 protein (dTROP2-His, ACRO Biosystems Inc., Cat #: TR2-C52H4), hPTK7-His, cPTK7-His and dPTK7-His were measured by surface plasmon resonance (SPR) using Biacore™ (Biacore, INC, Piscataway N.J.) 8K biosensor equipped with pre-immobilized Protein A sensor chips.
Regarding B1, binding was put at a Kd of 3.14 nM, the koff came to 0.000389 s⁻¹ and the kon was determined as 124000 M⁻¹ s⁻¹.
For B2, in that order: 2.67 nM, 0.000369 s⁻¹ and 138000 M⁻¹ s⁻¹.
B3 registered a Kd of 11.5 nM, a koff of 0.00139 s⁻¹ and a kon of 121000 M⁻¹ s⁻¹.
The molecule B4 yielded a Kd of 2.43 nM, a koff of 0.000329 s⁻¹ and a kon of 135000 M⁻¹ s⁻¹.
The matching figures for B5: 13.2 nM, 0.00152 s⁻¹ and 115000 M⁻¹ s⁻¹.

The target in a further test is T3, His-tagged cynomolgus monkey PTK7 …. Nature of the test: SPR Biacore 8K, Ab on Protein A chip. The protocol:
as §1
As to B1, the Kd is 5.2 nM, the koff is 0.000623 s⁻¹ and the kon came out at 120000 M⁻¹ s⁻¹.
B2 came in with a Kd of 4.6 nM, a koff of 0.000522 s⁻¹ and a kon of 114000 M⁻¹ s⁻¹.
In turn, B3 gave a Kd of 14.8 nM, a koff of 0.00173 s⁻¹ and a kon of 117000 M⁻¹ s⁻¹.
The matching figures for B4: 4.98 nM, 0.000649 s⁻¹ and 130000 M⁻¹ s⁻¹.
The matching figures for B5: 17.4 nM, 0.00216 s⁻¹ and 124000 M⁻¹ s⁻¹.

The next test concerns the target T4, His-tagged dog PTK7 protein. Briefly: SPR Biacore 8K, Ab on Protein A chip. The protocol:
as §1
On to B1, for which binding was characterised by a dissociation constant (Kd) of 16.7 nM, the koff was 0.00164 s⁻¹ and the kon worked out at 98300 M⁻¹ s⁻¹.
The matching figures for B2: 20.6 nM, 0.00197 s⁻¹ and 95500 M⁻¹ s⁻¹.
As for B3, binding was characterised by a dissociation constant (Kd) of 36.2 nM, the koff amounted to 0.00426 s⁻¹ and the association rate constant (kon) is 118000 M⁻¹ s⁻¹.
For B4, in that order: 16.4 nM, 0.00172 s⁻¹ and 105000 M⁻¹ s⁻¹.
For B5, in that order: 52.5 nM, 0.006 s⁻¹ and 114000 M⁻¹ s⁻¹.

The next test has as its target T5, His-tagged human TROP2 protein. Briefly: SPR Biacore 8K, Ab on Protein A chip. The protocol:
as §1
B1: the Kd is 3.23 nM, the koff was 0.00116 s⁻¹ and the kon amounted to 360000 M⁻¹ s⁻¹.
The matching figures for B2: 351 nM, 0.0455 s⁻¹ and 130000 M⁻¹ s⁻¹.
Turning to B3, the Kd came to 11.2 nM, the koff was found to be 0.0025 s⁻¹ and the kon turned out to be 224000 M⁻¹ s⁻¹.
For B4, in that order: 13.7 nM, 0.00244 s⁻¹ and 178000 M⁻¹ s⁻¹.
The matching figures for B5: 10.6 nM, 0.00419 s⁻¹ and 394000 M⁻¹ s⁻¹.
